{
  "source": "patent US20020032322A1",
  "data": [
    {"biological_target": "TWIK-1 (human)", "experiment": "cell-based or functional assay", "units": {"inhibition of TWIK-1 K+ currents (voltage clamp, Xenopus oocytes)": "% inhibition"}, "values": [
      {"substance": "dedrotoxine (peptide)", "inhibition of TWIK-1 K+ currents (voltage clamp, Xenopus oocytes)": "< 10"},
      {"substance": "charybdotoxine (from UniProt P13487 23-59) (peptide)", "inhibition of TWIK-1 K+ currents (voltage clamp, Xenopus oocytes)": "< 10"},
      {"substance": "apamin (from UniProt P01500 28-45) (peptide)", "inhibition of TWIK-1 K+ currents (voltage clamp, Xenopus oocytes)": "< 10"}
    ]}
  ]
}
